Here are results for 16 sequences from a protein production outcome set (Wang et al. 2014).

A short description of this data set: label from the status in PepcDB records.
With “MYLTVTPLSIVALTTAPPYFDTNGSISVPPPPNVIRSGLYESITLEYHKYTIKYCLTLITQTILFFLIVVCSMKVVIFGGTGLIGRAIYSSLPHDFYIVSRSAKGQEGQAHIIGLDEIDKIKECDVVINLSGYSIASKRWNRKVKEEIVRSRIDTTRLVVNFIRNLEKKPSAFLSGSAIGFYGHNTNKELTEEDPFGSGFLADLARSWEEEAMQADGICRTVLLRTANFLSPKGGFLSALINPKSKNVMYFGDGRQPVSWMHYADYVKAVEFVIENASIAGPVNMSSPQPVTFKEFAEAFSKSLGSHIRSIPEFLGKIALGSEMYRELMSGQKVIPKKLIQAGFKFDFPDINTAASSIASLMK”, the protein production entry was “failed”.
Next, “MYMILELLNIIGIIAFTISGSLKGTNKGLDIFGVVTLGVITSYAGGIIADILLGIYPPQILKELNYLLLSVGISIFVFYFYKWLQTNPIKMIIAISDAVGLSTFATLGASLAYSYGLNPISVGLIAAIVGTGGGVIRDVLVNEIPMVLTKEIYATAALLSGFIYYFTTPYLHHDSLFVAFLGSFLLRILSIKYNFNLPKREDNKS”: “failed”.
As to “MYMKHIENGTRIEGEYIKNKVIQYNMSILTDEVKQPMEEVSLVVKNEEGKIFGGVTGTMYFYHLHIDFLWVDESVRHDGYGSQLLHEIEGIAKEKGCRLILLDSFSFQAPEFYKKHGYREYGVVEDHPKGHSQHFFEKRL”, the protein production entry is listed as “not failed”.
To “MYNPVGVAAIGLGRWAYVMADAYTKSEKLKLVTCYSRTEDKREKFGKRYNCAGDATMEALLAREDVEMVIITVPNDKHAEVIEQCARSGKHIYVEKPISVSLDHAQRIDQVIKETGVKFLCGHSSRRLGALRKMKEMIDTKEIGEVSSIEAVFSNERGLELKKGNWRGEPATAPGGPLTQLGVHQIDNLQFLLGPVARVFNFGKPMYTEVENITVNQTLLEFEDGKQAYLGTNWACPGVFSINVYGTKANLFYQLDFSWWSNSDVTDEHSTLIKREFASMSDDPDNRILRDVKVDFESVDHLRVEVEEVADVIRNGGETEIGAEASLRNLAVVLAAVKSVHEKRPVEIAEIIG” belongs “not failed”; to “MYNRPNWQRRRRSLLVLVLGLLFLGFLIQPSYQWTKTNVAAMAGRHDSQMSPIIMIPGSSATQNRFDTLVKQLNKADHRRHSLIKLTVMTDDTIKMTGSLRARDNEPIIVVGFQNNRDGYDNIKHQARWFSLAFKKLAAKYQFNNFKAIGHSNGGLIYTYYFEHYFNRDDIKVKRIMTIGSPYNFSEANLNHKTQMLADFIKYRDRLPKSATMYSVAGTENYDSDGLVPARSVEAGKYIYQGQVKHFTEITVTGTNAQHSDLPQNAQIVTLIRTYMLDKPKQTRKGLVSTGTVE”, “failed”; to “MYNSATVIYQNLLKSTPKKASEYYYYLGDICWRKEKTDSAKYYFMEGIKTDETYAMNYVGIGIITMKSNATEGQRSFDKALQMTSQKNSQVLNAIGEYYILEADKAELPKGIALLKKSTEIDAKNAMSWILLGDAYGKQAEGSKQAESYGKAANLFHSVPLLKMKYGKMYAAARNKDLSIKYYNEGLAADPTYGPIYRELGDLYNRFRQYDLAIQNYKKYLTYIDSNDDVEFRYADFLFKNNNYAEAIEVFNKLEAKKYNSPYIYNRRAVCYYELAKYDLAQKDIETYFSKVNATKAKSADFEYYGKILMKKGQDSLAIQQYQAAVDRDTTRLDMYGQIGSYFYNKGNFPLAIQYMSKQIRPTTTDPKVFYELGQAYYYNKEYVKADSSFVKVLELKPNIYIGYLWRARANAAQDPDTKQGLAKPYYEKLIEVCAPGGAKYKDELIEANEYIAYYYTINRDKVKADAAWKNILALDPTNKKAIDGLKMK”, “failed”.
For “MYPDLVHLGGADKYFEEILEIVNKIKLFGDFSNEEVRYLCSYMQCYAAPRDCQLLTEGDPGDYLLLILTGEVNVIKDIPNKGIQTIAKVGAGAIIGEMSMIDGMPRSASCVASLPTDFAVLSRDALYQLLANMPKLGNKVLIRLLQLLTARFRESYDRILPKTLGELI”, the protein production result is recorded as “not failed”.
For “MYPLAFAKEGEEVIVKKIDAGCGAMQRLVSMGINIGSKLKVIRNQNGPVIISTKGSNIAIGRGLAMKIMVEDAEYGGENEKLLEHHHHHH”, the protein production entry was “failed”.
“MYRNDPILPTFALILAAGLFYAAYLDGRHIARLLGHVPEELSVGQIGLMAFGAVLLLYGLMGLVSYWLEGIELRPGRHFPTPSTAPVAAGVILVLLLTALSGFFVRLLVYSAQTGHNPTWLQGLIFGSISLVVAALFGIYRRFFGREEVITEEEKSEFPW”: the protein production result was “failed”.
For the sequence “MYSDKKNILQLVALLKAHGVRKIVLCPGSRNAAIVHTLANIEDFTCYSVTDERSAGFFAIGLSLQGGGPAAVCCTSGSALLNLHPAVAEAFYQQVPLIVISADRPAAWIGQMDGQTLPQPHVFGTLVKMSVNLPEVHTEEDEWFCNRLINEAILETTHHGKGPVHINVPISEPIYRFTAKTLPEVRVITRYQGL”, the protein production entry is “failed”.
Consider “MYTECAYITVINNKARLFFMNMKTSFIAAAVALATVYSFSVSAVQKDITVTANIDSTLELLQADGSSLPSTMKLDFMPGKGLVHKSLQTRLYSNDQTKSVNVKLLNAPQLINVLDPTKTIDMEVTLGGRSLTTTNSVLEAKTLFPDGKTGDASALLNLDIGQKAGAALQNLPAGEYSGLVSLVISQAVTAGLEHHHHHH”, for which the protein production result is recorded as “failed”.
To “MYTKQHTIKAPVKVSGVGLHTGAQVNLTFVPAPINHGILFKRVDLPDQPVVECDVDNVVDVSRGTSIEKNGARINTVEHALAALVGLQIDNILIELDGPEIPIMDGSSLPFIEAINAIGLEEQNALRNFFEVPHGIFFQDAEKNIELAALPLDDYRVTVMVDYNSPVLGSQHATLNNINQFEKEIASCRTFCFLHELEMLHKQNLIKGGDLNNAIVIVDRIVKDDELDSLAKLFGKDKVEVKKEGILNNIELRYKNEPARHKLLDVVGDLALVGRPLKAQIMAARPGHASNVAFAKKLKRVMMDSRQKAPHYDITQPSVLDVNQIYKLLPHRYPFKLVDKIVHLDENMIIGVKNVTINEPFFEGHFPGNPVMPGVLQIEAMAQTGGIFVMQSVPDPENYWTYFLSIESAKFRRMVVPGDTLVFKCELTAPIKRGIAKMQGQAYVGGNLVCEASLTASIVKKK” belongs “failed”; to “MYVFFSKDYLSKQEQSIWEQSFLRGNLMKAVVIGAGEVGYHIAKFLSLTHDVIVIENDEDALRRADELDVQVVEGNGANADILASVLPDVDILVAVTGVDEVNIVACMTAKLILRAHPGWKETKTIARVSNPDYIDVPVTSRAQVGVDIMICPELALASEVAEVLSNPSAIDAEMFAGGKVQMMEFAIRPDNRLVGKRMQDIELEDCCIVSAIFRNNDIIIPHGDDFIKANDHMVVVGKPRAMADLENVFGNEGPHRNRILLIGCGIVGFYLAKIIDKDENADLKVIEYRKSRCIEVAEMLENALILNGDGTDVNLLREENIEDMDVVIAVTDNDEKNLLCSLLAKQMGAKKVIARADRSDYVPLFEMVGIDIAVSPREATVNEVLKLTMGKGIEALATIEGEKAEIIEYTASGQSKIVGKPLSKIKFPKGAIVTMVVHDDDVIIPRGEFIIREGDRVIIFALSSAVRSVEKLFK”, “failed”.
For the sequence “MYVIIMGAGRIGTLVAKMLENSGHDVAIIEMNKDRARAVSDIVSGLVIEGDATDQNILESANVRNADAFVALTGKDDANILACILAKHLNPRIMTILRITDPRKKKIFEEVKDLKKYFDVVVSPEDIAANYIFRVVITPGFDRVLLPREGAEIIQFHIDENSKVAGKAVKDLNLPRDSLIIAIYDEKGNLIIPSGETILPKRGTVVVFAKDSALKEIKKIMEEKVEESEE”, the protein production result was “failed”.
With “MYVLIGGAGLVGLTLAQKLVELGHTVAIIDVDHTACRYAREQVGAMAFEGSAVSTEVLLEAGIRKADALAAVLRNDALNLAMVMLAKHYGVSHILSRMRHADFAQPLRLAGANHVISTVELSVSTMVNAIEYPQVESMMHFEQGQIEVLKISIPNSCYVANRSLAEIAQDSRFPSGSLIIGYQPHPHEDLVIPNGSTVLESGSTILIATKPGSLHQVIDFIEGCKLEHHHHHH”, the protein production result is reported as “not failed”.
To “MYYGFDIGGTKIALGVFDSTRRLQWEKRVPTPHTSYSAFLDAVCELVEEADQRFGVKGSVGIGIPGMPETEDGTLYAANVPAASGKPLRADLSARLDRDVRLDNDANCFALSEAWDDEFTQYPLVMGLILGTGVGGGLVLNGKPITGQSYITGEFGHMRLPVDALTLMGFDFPLRRCGCGQMGCIENYLSGRGFAWLYQHYYDQSLQAPEIIALWEQGDEQAHAHVERYLDLLAVCLGNILTIVDPDLLVIGGGLSNFTAITTQLAERLPRHLLPVARAPRIERARHGDAGGMRGAAFLHLTD” belongs “not failed”.
